# Measured values published in US20250009896A1, “SUPR[…] BASED VIRAL […] CAPTURE FOR PREVENTION AND THERAPY OF VIRAL INFECTION” (The Johns Hopkins University, priority 2023, published 2025).
# B1: sLigand peptide amphiphile (scrambled analog of Ligand) (peptide)
# peptide: VVVGKKGGYPKYPCTGSGSDGDELCGWYPHWPYR
# modifications: not checked
# How the values were obtained:
# [1] = biological target: T1, Recombinant human angiotensin-converting enzyme 2 (ACE2) protein, carrier-free (R&D Systems) (human), Q9BYF1
# [2] = biological target: T1, Recombinant human …; experiment: calculated reference value for the zeta potential of the mixture
# T1 sequence (Q9BYF1 18-740 limits assumed): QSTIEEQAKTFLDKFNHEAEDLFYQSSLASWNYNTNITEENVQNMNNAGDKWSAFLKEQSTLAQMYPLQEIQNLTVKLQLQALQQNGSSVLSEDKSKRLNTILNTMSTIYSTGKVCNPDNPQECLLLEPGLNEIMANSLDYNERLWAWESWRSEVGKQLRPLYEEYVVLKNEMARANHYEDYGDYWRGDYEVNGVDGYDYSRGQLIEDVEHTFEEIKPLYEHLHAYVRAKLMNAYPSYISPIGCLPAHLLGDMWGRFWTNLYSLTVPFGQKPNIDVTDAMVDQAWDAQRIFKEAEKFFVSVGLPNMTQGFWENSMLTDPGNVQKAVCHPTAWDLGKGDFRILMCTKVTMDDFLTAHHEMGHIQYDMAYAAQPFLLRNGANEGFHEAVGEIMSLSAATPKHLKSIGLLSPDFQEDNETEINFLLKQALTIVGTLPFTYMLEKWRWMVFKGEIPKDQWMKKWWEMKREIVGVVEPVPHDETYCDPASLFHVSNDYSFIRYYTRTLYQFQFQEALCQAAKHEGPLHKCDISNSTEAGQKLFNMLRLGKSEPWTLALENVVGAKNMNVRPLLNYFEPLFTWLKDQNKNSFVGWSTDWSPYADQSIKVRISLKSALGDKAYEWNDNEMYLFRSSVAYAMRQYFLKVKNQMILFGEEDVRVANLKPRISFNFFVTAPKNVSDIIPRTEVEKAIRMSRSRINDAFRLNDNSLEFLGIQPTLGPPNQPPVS
binder,measurement,setting,value
B1,"zeta potential of the mixture, measured",[1],-19.2 mV
same,intensity-averaged zeta potential calculated assuming no interaction,[2],-19 mV
